Test results taken from patent US11312781B2, “Antigen binding molecules that bind LIGHT” (Capella Bioscience Ltd., priority 2018, dated 2022).
Changes are numbered by the printed parent chain.

Tests used:
[1] = test system: DSS-induced colitis in hu-NOG mice; assay: DSS-induced acute colitis in humanized (hu-NOG) mice; format: in vivo, mouse (hu-NOG)
Experimental: The experiments were carried out with the NOD/Shi-scid/IL-2Rγnull immunodeficient mouse strain (NOG) engrafted with CD34+ hematopoietic stem cells isolated from human cord blood as described in Manfroi B et al. (Cancer Res. 2017; 77:1097-1107). The reconstitution of the human immune system in the mice occurred for at least 14 weeks, and hu-mice were used that had at least 25% human CD45+/total CD45 cells. Female hu-NOG mice were randomised into 3 groups (n=10) taking into account the humanization rate and the CD34+ cell donors. All animal studies described in this study have been reviewed and approved by the local ethic committee (CELEAG). Mice were allowed to acclimate to the experimental environment for 5 days prior to the beginning of the experiment. The DSS was administrated for 7 days, from day 2 to 8. The DSS (3%) was added to the drinking water (ad libitum) and freshly renewed every two days.
All treatments started before the DSS-induced colitis. 3B04 variant 16 (5 mg/kg) and the isotype control and anti-TNF (Humira) antibodies (10 mg/kg) were administrated i.p. on days 0, 3, 6, 9. The experiment was terminated on day 12. The following parameters were recorded daily for 12 days: body weight in grams (g); diarrhea and stool consistency; bleeding and mortality. The global clinical score was calculated as follows: […]

[2] = test system: CMV stimulated human PBMC; assay: Human PBMC antigen specific (CMV) recall response in vitro, cytokines by Luminex; format: cell-based; conditions: CMV stimulation, 5 day incubation
Experimental: In order to test the efficacy of anti-LIGHT mAbs on stimulated PBMC a recall antigen CMV (cytomegalovirus) lysate was utilised to stimulate PBMC from human CMV-positive donors (ImmunXperts, Belgium). 200 000 cells per well in RPMI (Thermofisher cat. no. 11875) plus 10% FBS (GIBCO) was added to CMV lysate (Serion immunologics cat. no. BA109VS, final concentration 10 ug/ml) with test mAbs in a volume of 200 ul. After a 5 day incubation at 37C and 5% CO2 the media was recovered by centrifugation and assayed for cytokines by Luminex immunoassay (ThermoFisher).

[3] = molecular target: T1, DcR3 binding to membrane LIGHT (EL4-LIGHT cells) (Homo sapiens, UniProt O43557); assay: Competition binding of anti-membrane LIGHT antibodies with DcR3-His on EL4-LIGHT cells; conditions: mAb at up to 100 nM
T1 construct: expressed in transfected cells; host or cells: EL4 mouse lymphoma cells, stably transduced
Experimental: DcR3 (TNFRSF6B) is a decoy receptor that competes with receptors for ligand binding. DcR3 can bind and neutralise LIGHT with high affinity and TL1A and FasL with lower affinity (Zhan C et al. Structure. 2011, 19:162-71 “Decoy strategies: the structure of TL1A:DcR3 complex”). Stably transduced LIGHT-expressing EL4 cells (mouse lymphoma cell line; EL4-LIGHT) were used for the flow cytometry-based competition-binding analysis.
EL4-LIGHT cells (0.25×10^6) were preincubated with anti-membrane LIGHT mAbs (0-300 nM) for 15 min at 4° C. followed by incubation with DcR3-His tagged (1 nM, Creative BioMart; ref:TNFRSF6B-552H, lot:962512) for 30 min at 4° C. The samples were then incubated with mouse anti-histag antibody (diluted 1:500, Biolegend, cat. no. 652502) for 30 minutes at 4° C., followed by incubation with anti-mouse APC (dil 1:500, BDBiosciences, cat. no. 550826) for 30 minutes at 4° C. The tubes were washed three times after each of the detection antibody stages and flow cytometry analysis was performed. Specific mean fluorescence intensity (MFI) obtained from the binding of DcR3-His to LIGHT on EL4 cells were used to determine the levels of competition binding.

[4] = test system: wild type and mutated membrane LIGHT; assay: Alanine scanning mutagenesis of membrane LIGHT and flow cytometry (HEK293FF cells); format: binding, human
Description: The full length LIGHT gene was synthesized by GeneArt (ThermoFisher Scientific) and cloned into the mammalian expression vector pcDNA 3.1(+). The following Ala mutations were introduced into the LIGHT gene: 30 single amino acid alanine substitutions from F57A to E86A; 2 single amino acid alanine substitutions; G188A, R189A; one serine substitution, A190S; 17 single amino acid alanine substitutions; T191A to V207A and 10 four amino acid alanine substitutions, 60-63, 64-67, 68-71, 72-75, 76-79, 80-83, 84-87, 88-91, 92-95 and 96-99. Constructs were reconstituted according to manufacture instructions, using DEPC-treated and sterile filtered water. Competent TOP10 E. coli cells were transformed with 100 ng of each construct and a single colony from each construct was picked and used to inoculate 10 ml of LB/carb100/glu2% medium and grown overnight at 37° C., 200 rpm. The extraction of the construct DNA was performed using the Qiagen QIAprep Spin Miniprep Kit (250) and the concentration was determined by measuring the O.D. at 260 nm in a spectrophotometer.
HEK293FF cells were cultured in Freestyle™293 expression medium (ThermoFisher scientific cat. no. 12338018) supplemented with 2 mM L-Glutamine. The day of transfection the cells were seeded in a 24-well plate at 0.6×10^6 cells/well. Lipofectamine 2000 (ThermoFisher scientific), 3 μl, was mixed with 50 μl OptiMEM medium (GIBCO) and then added to 50 μl Opti-MEM medium containing 3 ug plasmid DNA and incubated for 20 min at RT to form DNA-Lipofectamine 2000 complexes which were then added to the HEK293FF cells and incubated at 37° C., 5% CO2 for 24 hours. For each construct, in duplicate, 0.60×10^6 cells/well were used in a 96 well round bottom plate. Cells were centrifuged for 3 minutes at 300×g at 4° C., the supernatant discarded and the cells washed with 150 μl FACS buffer (0.5% FBS in phosphate buffered saline). This process was repeated 3 times. For each construct, […] cells/well were incubated with anti-LIGHT antibodies at the EC50 concentration and with positive controls of anti-LIGHT mAb MAB664 (R&D Systems), mAb F19 (EP2292663) or LTBR-Fc (R&D Systems), in a final volume of 50 μl/well for 30 min at 4° C., with shaking. The wells were washed 3 times as above and 50 μl/well of goat anti-human IgG FITC (1:1500 dilution in FACS buffer, SIGMA F9512-2ML) or goat anti-mouse APC (1/500 dilution in FACS buffer, BDBioscience 550826), as appropriate, was added to the wells and incubated for 30 min at 4° C. protected from the light, with shaking. The cells were then washed as above, resuspended in 100 μl of FACS buffer and binding of the antibodies to the constructs was measured using flow cytometry and a total of 10,000 cells were acquired for each sample. Controls of buffer and secondary antibody only as well as HEK293FF non transfected cells were also used.
All of the mAbs of this invention show a similar profile in that their epitope is located at amino acids 188-197 of LIGHT. […] The epitope of the mAbs of this invention defined by alanine scanning mutagenesis are residues 188-197 of LIGHT. This is visually depicted in FIG. 8 utilising a 3D visualisation of the LIGHT trimer from the crystal structure of LIGHT from Liu et al. (Structure 22: 1252-62; 2014). This would result in the mAbs binding to the “tip” of the LIGHT trimer and explaining the 1:1 binding. The impact of this epitope would result in […] less dosing of mAb 3B04 being required to neutralise membrane LIGHT compared to, for example, mAbs F19 and F23 (of EP2292663) which bind both soluble and membrane LIGHT equally and bind LIGHT in the ratio 3:1.

T1 sequence (O43557 whole entry): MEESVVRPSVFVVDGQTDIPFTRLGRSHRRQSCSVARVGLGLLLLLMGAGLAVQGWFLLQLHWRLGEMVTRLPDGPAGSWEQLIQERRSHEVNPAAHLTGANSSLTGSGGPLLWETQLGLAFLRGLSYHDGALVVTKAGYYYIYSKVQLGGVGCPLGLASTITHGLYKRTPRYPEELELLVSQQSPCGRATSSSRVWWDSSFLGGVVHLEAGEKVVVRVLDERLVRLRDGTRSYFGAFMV

B1: 3B04_var16: deimmunised 3B04 IgG4 variant: 3B04_VL_4 (SEQ ID NO 33) + 3B04_VH_4 (SEQ ID NO 37) (antibody, listed as Homo sapiens, V domains shown)
VH: QVQLVQSGAEVKKPGASVKVSCKASGYTFTDYEMHWVRQAPGQGLEWMGEIDPETGDTAYAQKFQGRVTLTADKSTSTAYMELSSLRSEDTAVYYCSRETDYFFDYWGQGTLVTVSS
VL: DIQMTQSPSSLSASVGDRVTITCRASENIYGALNWYQQKPGKAPKLLIYGATNLAEGVPSRFSGSGSGRDYTLTISSLQPEDFATYYCQNVLTTPWTFGQGTKLEIKR
- Effect on global clinical score compared to the anti-TNF positive control ([1]; 3B04 variant 16 5 mg/kg, Humira 10 mg/kg): significantly superior (p<0.05)
- Global clinical score ([1]; i.p. days 0, 3, 6, 9, versus IgG control, FIG. 9): significant (p<0.05) decrease in global clinical score as early as day 2
- IL-17 production from PBMC ([2]; FIG. 11A): significantly (p<0.05) inhibited
- IFN gamma production from PBMC ([2]; FIG. 11B): significantly (p<0.05) inhibited
- TNF production from PBMC ([2]; FIG. 11C): significantly (p<0.05) inhibited
- IL-6 production from PBMC ([2]; FIG. 11D): significantly (p<0.05) inhibited
- IL-12p70 production from PBMC ([2]; FIG. 11E): significantly (p<0.05) inhibited

B2: 3A07: parental anti-membrane LIGHT antibody, VL SEQ ID NO 97, VH SEQ ID NO 101; chimeric IgG4 mAb (antibody, listed as Homo sapiens, V domains shown)
VH: QVQLQQSGAELVRPGAPVTLSCKASDYTFTDSEIHWVKQTPVHGLEWIGEIDPETGGTAYNQKFKGKATLTADKSSSTAYMELRSLTSEDSAVYYCSRETDYFFDYWGQGTTLTVSS
VL: ENVLTQSPAIMSASPGEKVTMTCSASSSVSYMYWYQQRPGSSPRLLIYDTSNLASGVPVRFSGSGSGTSYSLTISRMEAEDAATYYCQQWSSYPLTFGSGTKLEIK
- Inhibition of DcR3 binding to membrane LIGHT [3]: only partially inhibit

B3: 3C10: parental anti-membrane LIGHT antibody, VL SEQ ID NO 89, VH SEQ ID NO 93; chimeric IgG4 mAb (antibody, listed as Homo sapiens, V domains shown)
VH: B2 VH with Q1E, P17S
VL: B2 VL with E1D, N2V, L4M, S7T, R38K, S99A, I105L
- Inhibition of DcR3 binding to membrane LIGHT [3]: only partially inhibit

B4: 2E08: parental anti-membrane LIGHT antibody, VL SEQ ID NO 81, VH SEQ ID NO 85; chimeric IgG4 mAb (antibody, listed as Homo sapiens, V domains shown)
VH: QVQMKESGAELVRPGVSVKISCKGSGYTFTDYAIHWVKQSHAKTLEWIGVISTYYGDASYNQKFKGKATMTVDKSSSTAYMELARLTSDDSAIYYCARSRGEYGNYDAMDYWGQGTSVTVSS
VL: DIVLTQSPASLAVSLGQRATISCKASQSVDYDGDSYMNWYQQKPGQPPKLLIYAASNLESGIPARFSGSGSGTDFTLNIHPVEEEDAATYYCQQSNEDPLTFGAGTKLELK
- Inhibition of DcR3 binding to membrane LIGHT [3]: only partially inhibit

B5: LTBR-Fc: LTBR-Fc receptor fusion protein (R&D Systems), positive control in alanine scanning (protein)
chain: SQPQAVPPYASENQTCRDQEKEYYEPQHRICCSRCPPGTYVSAKCSRIRDTVCATCAENSYNEHWNYLTICQLCRPCDPVMGLEEIAPCTSKRKTQCRCQPGMFCAAWALECTHCELLSDCPPGTEAELKDEVGKGNNHCVPCKAGHFQNTSSPSARCQPHTRCENQGLVEAAPGTAQSDTTCKNPLEPLPPEMSGTMLM
modifications: left off: a dimerising Fc or GST
notes: LTBR-Fc receptor fusion protein (R&D Systems), positive control in alanine scanning
- Binding to LIGHT alanine substitution constructs versus WT LIGHT ([4]; single substitutions F57A to E86A and four amino acid substitutions 60-63 to 96-99): no difference in binding
- Binding to LIGHT amino acid substitution constructs versus WT LIGHT ([4]; substitutions G188A to V207A): no difference in binding
